Laboratory results reported in paper PMC1474074.
Like-named read-outs stand apart in the source and are kept apart here.

B1: B-siRNA (anti-lamin A/C) (dsRNA)
RNA 1: GGAACUGGACUUCCAGAAGAACAUCUA
RNA 2: UAGAUGUUCUUCUGGAAGUCCAGUUCC
modifications: 5'-biotin on sense strand
B2: BSS-siRNA (anti-lamin A/C) (dsRNA)
RNA 1: GGAACUGGACUUCCAGAAGAACAUCUA
RNA 2: UAGAUGUUCUUCUGGAAGUCCAGUUCC
modifications: 5'-biotin via C6 S-S disulfide linker on sense strand

Tests used:
streptavidin [1] = target: T1, streptavidin (UniProt P22629 25-183); assay: EMSA
streptavidin [2] = target: T1, streptavidin; assay: EMSA; remark: listed apart in the source

T1 sequence (P22629 25-183): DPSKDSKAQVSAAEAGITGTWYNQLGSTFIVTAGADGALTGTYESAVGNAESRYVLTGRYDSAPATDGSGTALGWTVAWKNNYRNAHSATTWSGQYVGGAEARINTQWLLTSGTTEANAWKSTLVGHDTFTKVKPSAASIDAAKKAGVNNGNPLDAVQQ

Binder	binding result (streptavidin [1])	binding result (streptavidin [2])
B1	binds	
B2		binds
